Data taken from the supplement of paper PMC11316812.
± gives the standard deviation of the averaged measurements.

Legend:
MCF7 = test: percentage of EdU-negative (G0-arrested) nuclei per well, 72 h; higher = more G0 arrest; details: reference: sequence is the full UniProt precursor, the tested protein was the secreted form or ectodomain
hTERT-HMEC = test: as above; details: reference: sequence is the full UniProt precursor, the tested protein was the secreted form or ectodomain
[1] = protein concentration 0.0225 µM
[2] = protein concentration 0.0357143 µM
[3] = protein concentration 0.357143 µM
[4] = protein concentration 0.0257143 µM
[5] = protein concentration 0.257143 µM
[6] = protein concentration 0.03125 µM
[7] = protein concentration 0.3125 µM
[8] = protein concentration 0.0117143 µM
[9] = protein concentration 0.117143 µM
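Further: secreted proteins added to cultured cells, EdU pulse at the end, nuclei found by Hoechst imaging, EdU status from nuclear versus surrounding ring intensity ratio, PBS as neutral control.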

MKLITILFLCSRLLLSLTQESQSEEIDCNDKDLFKAVDAALKKYNSQNQSNNQFVLYRITEATKTVGSDTFYSFKYEIKEGDCPVQSGKTWQDCEYKDAAKAATGECTATVGKRSSTKFSVATQTCQITPAEGPVVTAQYDCLGCVHPISTQSPDLEPILRHGIQYFNNNTQHSSLFMLNEVKRAQRQVVAGLNFRITYSIVQTNCSKENFLFLTPDCKSLWNGDTGECTDNAYIDIQLRIASFSQNCDIYPGKDFVQPPTKICVGCPRDIPTNSPELEETLTHTITKLNAENNATFYFKIDNVKKARVQVVAGKKYFIDFVARETTCSKESNEELTESCETKKLGQSLDCNAEVYVVPWEKKIYPTVNCQPLGMISLMKRPPGFSPFRSSRIGEIKEETTVSPPHTSMAPAQDEERDSGKEQGHTRRHDWGHEKQRKHNLGHGHKHERDQGHGHQRGHGLGHGHEQQHGLGHGHKFKLDDDLEHQGGHVLDHGHKHKHGHGHGKHKNKGKKNGKHNGWKTEHLASSSEDSTTPSAQTQEKTEGPTPIPSLAKPGVTVTFSDFQDSDLIATMMPPISPAPIQSDDDWIPDIQIDPNGLSFNPISDFPDTTSPKCPGRPWKSVSEINPTTQMKESYYFDLTDGLS
percentage of EdU-negative (MCF7; protein concentration 0.006 µM): 24.3 ± 0.58% | percentage of EdU-negative (MCF7; protein concentration 0.06 µM): 26.5 ± 0.67% | percentage of EdU-negative (hTERT-HMEC; protein concentration 0.006 µM): 4.85 ± 0.42% | percentage of EdU-negative (hTERT-HMEC; protein concentration 0.06 µM): 6.72 ± 0.15%

MKLKLKNVFLAYFLVSIAGLLYALVQLGQPCDCLPPLRAAAEQLRQKDLRISQLQAELRRPPPAPAQPPEPEALPTIYVVTPTYARLVQKAELVRLSQTLSLVPRLHWLLVEDAEGPTPLVSGLLAASGLLFTHLVVLTPKAQRLREGEPGWVHPRGVEQRNKALDWLRGRGGAVGGEKDPPPPGTQGVVYFADDDNTYSRELFEEMRWTRGVSVWPVGLVGGLRFEGPQVQDGRVVGFHTAWEPSRPFPVDMAGFAVALPLLLDKPNAQFDSTAPRGHLESSLLSHLVDPKDLEPRAANCTRVLVWHTRTEKPKMKQEEQLQRQGRGSDPAIEV
percentage of EdU-negative (MCF7; [1]): 24 ± 0.88% | percentage of EdU-negative (MCF7; protein concentration 0.225 µM): 27.1 ± 1.6% | percentage of EdU-negative (hTERT-HMEC; [1]): 6.2 ± 0.23% | percentage of EdU-negative (hTERT-HMEC; protein concentration 0.225 µM): 9.73 ± 0.47%

MKLLFPIFASLMLQYQVNTEFIGLRRCLMGLGRCRDHCNVDEKEIQKCKMKKCCVGPKVVKLIKNYLQYGTPNVLNEDVQEMLKPAKNSSAVIQRKHILSVLPQIKSTSFFANTNFVIIPNATPMNSATISTMTPGQITYTATSTKSNTKESRDSATASPPPAPPPPNILPTPSLELEEAEEQ [Q9H1M3]
percentage of EdU-negative (MCF7; [1]): 23.2 ± 1.2% | percentage of EdU-negative (MCF7; protein concentration 0.225 µM): 25.3 ± 1.1% | percentage of EdU-negative (hTERT-HMEC; [1]): 4.86 ± 0.34% | percentage of EdU-negative (hTERT-HMEC; protein concentration 0.225 µM): 4.66 ± 0.73%

MKLLHVFLLFLCFHLRFCKVTYTSQEDLVEKKCLAKKYTHLSCDKVFCQPWQRCIEGTCVCKLPYQCPKNGTAVCATNRRSFPTYCQQKSLECLHPGTKFLNNGTCTAEGKFSVSLKHGNTDSEGIVEVKLVDQDKTMFICKSSWSMREANVACLDLGFQQGADTQRRFKLSDLSINSTECLHVHCRGLETSLAECTFTKRRTMGYQDFADVVCYTQKADSPMDDFFQCVNGKYISQMKACDGINDCGDQSDELCCKACQGKGFHCKSGVCIPSQYQCNGEVDCITGEDEVGCAGFASVTQEETEILTADMDAERRRIKSLLPKLSCGVKNRMHIRRKRIVGGKRAQLGDLPWQVAIKDASGITCGGIYIGGCWILTAAHCLRASKTHRYQIWTTVVDWIHPDLKRIVIEYVDRIIFHENYNAGTYQNDIALIEMKKDGNKKDCELPRSIPACVPWSPYLFQPNDTCIVSGWGREKDNERVFSLQWGEVKLISNCSKFYGNRFYEKEMECAGTYDGSIDACKGDSGGPLVCMDANNVTYVWGVVSWGENCGKPEFPGVYTKVANYFDWISYHVGRPFISQYNV
percentage of EdU-negative (MCF7; protein concentration 0.021 µM): 24.6 ± 0.98% | percentage of EdU-negative (MCF7; protein concentration 0.21 µM): 27.3 ± 1.3% | percentage of EdU-negative (hTERT-HMEC; protein concentration 0.021 µM): 4.11 ± 0.1% | percentage of EdU-negative (hTERT-HMEC; protein concentration 0.21 µM): 4.288 ± 0.024%

MKLMVLVFTIGLTLLLGVQAMPANRLSCYRKILKDHNCHNLPEGVADLTQIDVNVQDHFWDGKGCEMICYCNFSELLCCPKDVFFGPKISFVIPCNNQ
percentage of EdU-negative (MCF7; [1]): 25.5 ± 2.2% | percentage of EdU-negative (MCF7; protein concentration 0.225 µM): 25.5 ± 3.6% | percentage of EdU-negative (hTERT-HMEC; [1]): 5.85 ± 0.5% | percentage of EdU-negative (hTERT-HMEC; protein concentration 0.225 µM): 6.71 ± 0.2%

MKLNLVQIFFMLLMLLLGLGMGLGLGLHMATAVLEESDQPLNEFWSSDSQDKAEATEEGDGTQTTETLVLSNKEVVQPGWPEDPILGEDEVGGNKMLRASALFQSNKDYLRLDQTDRECNDMMAHKMKEPSQSCIAQYAFIHEDLNTVKAVCNSPVIACELKGGKCHKSSRPFDLTLCELSQPDQVTPNCNYLTSVIKKHIIITCNDMKRQLPTGQ [Q5GAN6]
percentage of EdU-negative (MCF7; [1]): 27.3 ± 3.4% | percentage of EdU-negative (MCF7; protein concentration 0.225 µM): 25.2 ± 0.41% | percentage of EdU-negative (hTERT-HMEC; [1]): 5.66 ± 1.3% | percentage of EdU-negative (hTERT-HMEC; protein concentration 0.225 µM): 5.77 ± 0.33%

MKLPLLLALLFGAVSALHLRSETSTFETPLGAKTLPEDEETPEQEMEETPCRELEEEEEWGSGSEDASKKDGAVESISVPDMVDKNLTCPEEEDTVKVVGIPGCQTCRYLLVRSLQTFSQAWFTCRRCYRGNLVSIHNFNINYRIQCSVSALNQGQVWIGGRITGSGRCRRFQWVDGSRWNFAYWAAHQPWSRGGHCVALCTRGGHWRRAHCLRRLPFICSY
percentage of EdU-negative (MCF7; [1]): 26.5 ± 0.76% | percentage of EdU-negative (MCF7; protein concentration 0.225 µM): 29 ± 0.95% | percentage of EdU-negative (hTERT-HMEC; [1]): 5.28 ± 0.63% | percentage of EdU-negative (hTERT-HMEC; protein concentration 0.225 µM): 4.45 ± 0.14%

MKLQCVSLWLLGTILILCSVDNHGLRRCLISTDMHHIEESFQEIKRAIQAKDTFPNVTILSTLETLQIIKPLDVCCVTKNLLAFYVDRVFKDHQEPNPKILRKISSIANSFLYMQKTLRQCQEQRQCHCRQEATNATRVIHDNYDQLEVHAAAIKSLGELDVFLAWINKNHEVMFSA [Q9UHD0]
percentage of EdU-negative (MCF7; [2]): 24.3 ± 3% | percentage of EdU-negative (MCF7; [3]): 27.41 ± 0.059% | percentage of EdU-negative (hTERT-HMEC; [2]): 5.09 ± 0.068% | percentage of EdU-negative (hTERT-HMEC; [3]): 6.97 ± 1.1%

MKLSGMFLLLSLALFCFLTGVFSQGGQVDCGEFQDPKVYCTRESNPHCGSDGQTYGNKCAFCKAIVKSGGKISLKHPGKC [Q6UWN8]
percentage of EdU-negative (MCF7; [4]): 24.2 ± 1.2% | percentage of EdU-negative (MCF7; [5]): 27.2 ± 3% | percentage of EdU-negative (hTERT-HMEC; [4]): 4.92 ± 0.69% | percentage of EdU-negative (hTERT-HMEC; [5]): 5.15 ± 0.39%

MKLVFLVLLFLGALGLCLAGRRRSVQWCAVSQPEATKCFQWQRNMRKVRGPPVSCIKRDSPIQCIQAIAENRADAVTLDGGFIYEAGLAPYKLRPVAAEVYGTERQPRTHYYAVAVVKKGGSFQLNELQGLKSCHTGLRRTAGWNVPIGTLRPFLNWTGPPEPIEAAVARFFSASCVPGADKGQFPNLCRLCAGTGENKCAFSSQEPYFSYSGAFKCLRDGAGDVAFIRESTVFEDLSDEAERDEYELLCPDNTRKPVDKFKDCHLARVPSHAVVARSVNGKEDAIWNLLRQAQEKFGKDKSPKFQLFGSPSGQKDLLFKDSAIGFSRVPPRIDSGLYLGSGYFTAIQNLRKSEEEVAARRARVVWCAVGEQELRKCNQWSGLSEGSVTCSSASTTEDCIALVLKGEADAMSLDGGYVYTAGKCGLVPVLAENYKSQQSSDPDPNCVDRPVEGYLAVAVVRRSDTSLTWNSVKGKKSCHTAVDRTAGWNIPMGLLFNQTGSCKFDEYFSQSCAPGSDPRSNLCALCIGDEQGENKCVPNSNERYYGYTGAFRCLAENAGDVAFVKDVTVLQNTDGNNNEAWAKDLKLADFALLCLDGKRKPVTEARSCHLAMAPNHAVVSRMDKVERLKQVLLHQQAKFGRNGSDCPDKFCLFQSETKNLLFNDNTECLARLHGKTTYEKYLGPQYVAGITNLKKCSTSPLLEACEFLRK [E7EQB2]
percentage of EdU-negative (MCF7; protein concentration 0.01 µM): 22.5 ± 0.39% | percentage of EdU-negative (MCF7; protein concentration 0.1 µM): 24.6 ± 0.5% | percentage of EdU-negative (hTERT-HMEC; protein concentration 0.01 µM): 5.27 ± 0.58% | percentage of EdU-negative (hTERT-HMEC; protein concentration 0.1 µM): 5.87 ± 0.35%

MKLWDVVAVCLVLLHTASAFPLPAGKRPPEAPAEDRSLGRRRAPFALSSDSNMPEDYPDQFDDVMDFIQATIKRLKRSPDKQMAVLPRRERNRQAAAANPENSRGKGRRGQRGKNRGCVLTAIHLNVTDLGLGYETKEELIFRYCSGSCDAAETTYDKILKNLSRNRRLVSDKVGQACCRPIAFDDDLSFLDDNLVYHILRKHSAKRCGCI
percentage of EdU-negative (MCF7; [6]): 24.9 ± 0.95% | percentage of EdU-negative (MCF7; [7]): 29.1 ± 0.3% | percentage of EdU-negative (hTERT-HMEC; [6]): 5.08 ± 0.53% | percentage of EdU-negative (hTERT-HMEC; [7]): 5.86 ± 0.094%

MKMMLVRRFRVLILMVFLVACALHIALDLLPRLERRGARPSGEPGCSCAQPAAEVAAPGWAQVRGRPGEPPAASSAAGDAGWPNKHTLRILQDFSSDPSSNLSSHSLEKLPPAAEPAERALRGRDPGALRPHDPAHRPLLRDPGPRRSESPPGPGGDASLLARLFEHPLYRVAVPPLTEEDVLFNVNSDTRLSPKAAENPDWPHAGAEGAEFLSPGEAAVDSYPNWLKFHIGINRYELYSRHNPAIEALLHDLSSQRITSVAMKSGGTQLKLIMTFQNYGQALFKPMKQTREQETPPDFFYFSDYERHNAEIAAFHLDRILDFRRVPPVAGRMVNMTKEIRDVTRDKKLWRTFFISPANNICFYGECSYYCSTEHALCGKPDQIEGSLAAFLPDLSLAKRKTWRNPWRRSYHKRKKAEWEVDPDYCEEVKQTPPYDSSHRILDVMDMTIFDFLMGNMDRHHYETFEKFGNETFIIHLDNGRGFGKYSHDELSILVPLQQCCRIRKSTYLRLQLLAKEEYKLSLLMAESLRGDQVAPVLYQPHLEALDRRLRVVLKAVRDCVERNGLHSVVDDDLDTEHRAASAR [Q8IXL6]
percentage of EdU-negative (MCF7; [8]): 23.5 ± 2.4% | percentage of EdU-negative (MCF7; [9]): 24.2 ± 0.32% | percentage of EdU-negative (hTERT-HMEC; [8]): 5.97 ± 0.7% | percentage of EdU-negative (hTERT-HMEC; [9]): 6.51 ± 0.12%
